Assay results reported in patent US20250242041A1 (Seagen, published 2025).
Changes are numbered by the printed parent chain.

T1: human αvβ6 on 293F:huβ6 cells (human, UniProt P06756 31-1048; P18564 22-788)
T1 chain 1: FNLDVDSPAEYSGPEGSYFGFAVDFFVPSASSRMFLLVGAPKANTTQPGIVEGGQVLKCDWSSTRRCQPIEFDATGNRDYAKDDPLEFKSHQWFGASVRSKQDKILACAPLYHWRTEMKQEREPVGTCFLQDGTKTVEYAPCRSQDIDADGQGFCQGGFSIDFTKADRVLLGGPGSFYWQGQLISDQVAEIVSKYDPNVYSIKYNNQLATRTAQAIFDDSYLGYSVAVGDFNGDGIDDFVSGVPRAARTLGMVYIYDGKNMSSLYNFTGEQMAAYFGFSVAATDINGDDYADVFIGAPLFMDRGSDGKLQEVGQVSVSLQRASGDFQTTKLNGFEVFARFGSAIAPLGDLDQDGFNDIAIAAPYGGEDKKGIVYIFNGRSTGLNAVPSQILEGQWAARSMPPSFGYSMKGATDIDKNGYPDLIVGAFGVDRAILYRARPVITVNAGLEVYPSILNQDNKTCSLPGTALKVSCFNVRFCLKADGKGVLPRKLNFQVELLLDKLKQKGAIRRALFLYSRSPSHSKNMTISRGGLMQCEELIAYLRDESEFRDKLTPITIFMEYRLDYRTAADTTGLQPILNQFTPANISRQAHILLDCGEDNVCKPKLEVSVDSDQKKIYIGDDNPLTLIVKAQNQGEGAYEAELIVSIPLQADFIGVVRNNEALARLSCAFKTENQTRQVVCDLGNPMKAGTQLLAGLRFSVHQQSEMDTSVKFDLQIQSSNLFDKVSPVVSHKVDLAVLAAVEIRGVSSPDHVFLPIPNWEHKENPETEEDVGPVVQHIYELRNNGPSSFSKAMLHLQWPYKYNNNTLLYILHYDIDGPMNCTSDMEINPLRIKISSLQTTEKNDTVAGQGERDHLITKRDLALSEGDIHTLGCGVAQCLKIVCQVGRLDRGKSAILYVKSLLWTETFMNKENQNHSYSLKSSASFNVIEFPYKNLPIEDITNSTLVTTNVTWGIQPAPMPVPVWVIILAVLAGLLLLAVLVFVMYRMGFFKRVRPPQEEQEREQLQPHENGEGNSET
T1 chain 2: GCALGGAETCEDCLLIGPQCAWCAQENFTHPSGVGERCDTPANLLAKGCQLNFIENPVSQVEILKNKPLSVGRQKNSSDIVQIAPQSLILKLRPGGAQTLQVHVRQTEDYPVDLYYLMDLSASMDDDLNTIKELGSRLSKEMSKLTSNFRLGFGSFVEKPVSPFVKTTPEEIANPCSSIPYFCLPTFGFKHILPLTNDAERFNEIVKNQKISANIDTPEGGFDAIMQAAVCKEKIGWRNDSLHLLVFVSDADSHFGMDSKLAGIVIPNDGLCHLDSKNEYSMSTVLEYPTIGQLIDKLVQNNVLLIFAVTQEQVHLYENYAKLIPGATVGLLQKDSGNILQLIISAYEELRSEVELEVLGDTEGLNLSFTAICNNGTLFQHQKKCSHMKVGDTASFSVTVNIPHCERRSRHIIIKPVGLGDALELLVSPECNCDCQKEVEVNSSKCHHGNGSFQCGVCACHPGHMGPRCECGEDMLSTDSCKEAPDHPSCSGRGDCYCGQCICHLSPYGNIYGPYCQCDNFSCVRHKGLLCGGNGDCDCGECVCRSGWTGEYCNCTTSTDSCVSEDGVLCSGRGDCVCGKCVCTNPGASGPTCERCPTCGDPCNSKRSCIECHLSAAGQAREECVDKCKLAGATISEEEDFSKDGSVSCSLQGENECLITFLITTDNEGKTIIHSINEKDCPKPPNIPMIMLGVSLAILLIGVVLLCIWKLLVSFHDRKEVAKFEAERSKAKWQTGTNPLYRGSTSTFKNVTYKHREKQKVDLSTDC

B1: c2A2 (antibody, V domains shown)
VH: EFQLQQSGPELVKPGASVKISCKASGYSFTDYNVNWVKQSNGKSLEWIGVINPKYGTTRYNQKFKGKATLTVDKPSSTAYMQLNSLTSEDSAVYYCTRGLNAWDYWGQGASVTVSS
VL: DIQMTQSPASLSASVGETVTITCGASENIYGALNWYQRKQGKSPQLLIYGATNLADGMSSRFSGSGSGRQYSFKISSLHPDDVATYYCQNVLTTPYTFGGGTKLEIK
B2: h2A2 HBLB (antibody, V domains shown)
VH: QFQLVQSGAEVKKPGASVKVSCKASGYSFTDYNVNWVRQAPGQGLEWMGVINPKYGTTRYNQKFKGRVTMTRDTPTSTVYMELSSLRSEDTAVYYCTRGLNAWDYWGQGTLVTVSS
VL: DIQMTQSPSSLSASVGDRVTITCGASENIYGALNWYQQKPGKAPKLLIYGATNLADGVPSRFSGSGSGRDYTFTISSLQPEDIATYYCQNVLTTPYTFGQGTKLEIKR
B3: h2A2 HCLA (antibody, V domains shown)
VH: B2 VH with M48I, V68A, M70L, R72V, T74K, P75S, V79A
VL: B2 VL with R69T, Y71F
B4: h2A2 HDLA (antibody, V domains shown)
VH: B2 VH with M48I, V68A, M70L, R72V, T74K, V79A
VL: B2 VL with R69T, Y71F
B5: h2A2 HCLB (antibody, V domains shown)
VH: B2 VH with M48I, V68A, M70L, R72V, T74K, P75S, V79A
VL: B2 VL
B6: h2A2 HALB (antibody, V domains shown)
VH: B2 VH with P75S
VL: B2 VL
B7: h2A2 HALA (antibody, V domains shown)
VH: B2 VH with P75S
VL: B2 VL with R69T, Y71F
B8: h2A2 HBLA (antibody, V domains shown)
VH: B2 VH
VL: B2 VL with R69T, Y71F
B9: h2A2 HDLB (antibody, V domains shown)
VH: B2 VH with M48I, V68A, M70L, R72V, T74K, V79A
VL: B2 VL
B10: h2A2 HALG (antibody, V domains shown)
VH: B2 VH with P75S
VL: B2 VL with A55E
B11: h2A2 HCLH (antibody, V domains shown)
VH: B2 VH with M48I, V68A, M70L, R72V, T74K, P75S, V79A
VL: B2 VL with Y71F
B12: h2A2 HCLE (antibody, V domains shown)
VH: B2 VH with M48I, V68A, M70L, R72V, T74K, P75S, V79A
VL: B2 VL with G24Q
B13: h2A2 HALC (antibody, V domains shown)
VH: B2 VH with P75S
VL: B2 VL with D56T
B14: h2A2 HCLF (antibody, V domains shown)
VH: B2 VH with M48I, V68A, M70L, R72V, T74K, P75S, V79A
VL: B2 VL with G24Q, D56T, R69T
B15: h2A2 HALE (antibody, V domains shown)
VH: B2 VH with P75S
VL: B2 VL with G24Q
B16: h2A2 HALD (antibody, V domains shown)
VH: B2 VH with P75S
VL: B2 VL with R69T
B17: h2A2 HALF (antibody, V domains shown)
VH: B2 VH with P75S
VL: B2 VL with G24Q, D56T, R69T
B18: h2A2 HALH (antibody, V domains shown)
VH: B2 VH with P75S
VL: B2 VL with Y71F
B19: h2A2 HCLC (antibody, V domains shown)
VH: B2 VH with M48I, V68A, M70L, R72V, T74K, P75S, V79A
VL: B2 VL with D56T
B20: h2A2 HCLD (antibody, V domains shown)
VH: B2 VH with M48I, V68A, M70L, R72V, T74K, P75S, V79A
VL: B2 VL with R69T

Target: T1, human αvβ6 on 293F:huβ6 cells
Experiment: competition binding on 293F cells; 2nM m2A2-AF647 competitor

EC50 [nM] | Binder
4 | B1
9 | B2
74 | B3
147 | B4
3 | B5
5 | B6
74 | B7
85 | B8
6 | B9

Target: T1, human αvβ6 on 293F:huβ6 cells
Experiment: as above
Remark: another data set of the same source

EC50 [nM] | Binder
1 | B10
46 | B11
2 | B12

Target: T1, human αvβ6 on 293F:huβ6 cells
Experiment: as above
Remark: another data set of the same source

EC50 [nM] | Binder
3 | B1
9 | B13
6 | B14
5 | B15
1 | B10
30 | B11
3 | B12
3 | B5
12 | B16
14 | B17
8 | B6
46 | B18
3 | B19
5 | B20
